Measurements from patent US20170037103A1 (University of California, published 2017).
Bridges are numbered along the chain shown (N, C = ends). Where no end group is shown, it is not given here. [ ]: non-standard residue; d: D form. The star is where a group is joined. PalS‑X = 3,5-bis(methyl-S-cysteinyl)-1-(methyl-S-palmityl)-benzene joining the two Cys; Ida^NHPal = iminodiacetic acid mono-N-palmityl amide, CCCCCCCCCCCCCCCCNC(=O)CNCC(=O)*; dPEG12 = 40-amino-4,7,10,13,16,19,22,25,28,31,34,37-dodecaoxotetradecanoic acid; Oic = O=C(O)[C@@H]1C[C@@H]2CCCC[C@@H]2N1; Palmitoyl = CCCCCCCCCCCCCCCC(=O)*; Tic = O=C(O)[C@@H]1Cc2ccccc2CN1; Aib = CC(C)(N)C(=O)O; Ahx = NCCCCCC(=O)O

T1: human neuromedin U receptor NMUR1 (human, UniProt Q9HB89 1-426)
T1 sequence (looked up): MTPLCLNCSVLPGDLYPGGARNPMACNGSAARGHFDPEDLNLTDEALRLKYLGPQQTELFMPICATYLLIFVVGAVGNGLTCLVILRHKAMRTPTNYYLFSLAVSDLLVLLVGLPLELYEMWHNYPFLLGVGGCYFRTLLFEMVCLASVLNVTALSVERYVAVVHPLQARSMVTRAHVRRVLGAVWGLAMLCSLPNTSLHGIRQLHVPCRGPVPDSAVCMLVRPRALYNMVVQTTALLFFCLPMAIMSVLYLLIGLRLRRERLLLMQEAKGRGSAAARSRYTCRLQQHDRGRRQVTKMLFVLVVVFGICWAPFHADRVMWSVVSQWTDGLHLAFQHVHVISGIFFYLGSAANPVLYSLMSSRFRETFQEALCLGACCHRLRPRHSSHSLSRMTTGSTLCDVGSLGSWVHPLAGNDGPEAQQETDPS


Experiments:
[1] = biological target: T2, human neuromedin U receptor NMUR2 (human, UniProt Q9GZQ4 1-415); experiment: told from the calcium mobilization assay on HEK293 cells expressing the receptor; no direct binding assay
T2 construct: whole, on cells; also called neuromedin U 2 receptor; HEK-NMU2
T2 sequence (Q9GZQ4 whole entry): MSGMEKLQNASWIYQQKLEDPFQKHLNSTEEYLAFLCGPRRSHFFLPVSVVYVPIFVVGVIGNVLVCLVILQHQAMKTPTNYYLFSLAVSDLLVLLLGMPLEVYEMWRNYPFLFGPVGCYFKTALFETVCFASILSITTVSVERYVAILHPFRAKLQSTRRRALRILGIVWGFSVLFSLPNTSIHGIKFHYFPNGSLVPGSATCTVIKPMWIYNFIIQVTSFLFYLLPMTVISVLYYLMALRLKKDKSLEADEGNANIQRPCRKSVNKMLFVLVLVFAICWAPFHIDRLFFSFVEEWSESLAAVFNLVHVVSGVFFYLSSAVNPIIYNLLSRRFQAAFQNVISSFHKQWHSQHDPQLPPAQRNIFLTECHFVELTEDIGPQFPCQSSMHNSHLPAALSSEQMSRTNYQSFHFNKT
Method: To test whether neuromedin U can be modified/derivatized to yield truncated bioactive compound(s) that may be useful as therapeutics, we synthesized a small library (25 peptides) of hNMU analogs utilizing various stabilization protocols, including: cyclization, lipidation, introduction of α,α-disubstituted and N-methylated amino acids, retro-inverso-approach, and combination of such (see Table 1). Subsequently all analogues were tested against human neuromedin U receptors (NMUR1 and NMUR2) in calcium mobilization assay (collaboration with Dr Gary Willars, University of Leicester, UK).
HEK293 cells expressing either the neuromedin U 1 receptor or neuromedin U 2 receptor (HEK-NMU1 and HEK-NMU2 respectively) were grown to approximately 90% confluence in ELISA strip plates (96-well format) pre-coated with poly-D-lysine (0.1% w/v) and loaded for 45 min at 37° C. with 2 iM fluo-4-AM in Krebs'-HEPES buffer with bovine serum albumin (KHB-BSA; composition: 10 mM HEPES; 4.2 mM NaHCO₃; 11.7 mM D-glucose; 1.18 mM MgSO₄.7H₂O; 1.18 mM KH₂PO₄; 4.69 mM KCl; 118 mM NaCl; 1.3 mM CaCl₂.2H₂O; 0.1% (w/v) BSA; pH 7.4). Monolayers were then washed and equilibrated for 5 min at 37° C. in 100 il KHB-BSA for subsequent recording of fluorescence as an index of intracellular [Ca²⁺] ([Ca²⁺]ᵢ) using a microplate reader (NOVOstar; BMG LABTECH, Aylesbury, U.K.). […]

[2] = biological target: T1, human neuromedin U receptor NMUR1; experiment: cell-based or functional assay

Row | binding result [1] | NMUR1 EC50 [nM], calcium mobilization assay [2] [nM] | Binder
1 | binds | 1.51 | Palmitoyl-[dPEG12][Aib]FLFRPRN-NH2 [NM4]
2 | – | 1410 | C[Ahx]FLFR[Oic]RN[Ahx]C-NH2 (cysteine pairing not given here) [NM9]
3 | – | 186 | C[Ahx]FLFRPRN[Ahx]C-NH2 (cysteine pairing not given here) [NM8]
4 | – | 331 | Palmitoyl-[Aib]FLFRPRN-NH2 (SMILES CCCCCCCCCCCCCCCC(=O)NC(C)(C)C(=O)N[C@@H](Cc1ccccc1)C(=O)N[C@@H](CC(C)C)C(=O)N[C@@H](Cc1ccccc1)C(=O)N[C@@H](CCCNC(=N)N)C(=O)N1CCC[C@H]1C(=O)N[C@@H](CCCNC(=N)N)C(=O)N[C@@H](CC(N)=O)C(N)=O) [NM3]
5 | – | 58.9 | [Aib]FLFRPRN[Aib]-NH2 (N-terminus assumed; SMILES CC(C)C[C@H](NC(=O)[C@H](Cc1ccccc1)NC(=O)C(C)(C)N)C(=O)N[C@@H](Cc1ccccc1)C(=O)N[C@@H](CCCNC(=N)N)C(=O)N1CCC[C@H]1C(=O)N[C@@H](CCCNC(=N)N)C(=O)N[C@@H](CC(N)=O)C(=O)NC(C)(C)C(N)=O) [NM5]
6 | – | 7.41 | {Ida^NHPal}-[Aib]FLFRPRN-NH2 [NM4A]
7 | – | 0.63 | [Aib]FLFRPRN-NH2 (N-terminus assumed; SMILES CC(C)C[C@H](NC(=O)[C@H](Cc1ccccc1)NC(=O)C(C)(C)N)C(=O)N[C@@H](Cc1ccccc1)C(=O)N[C@@H](CCCNC(=N)N)C(=O)N1CCC[C@H]1C(=O)N[C@@H](CCCNC(=N)N)C(=O)N[C@@H](CC(N)=O)C(N)=O) [NM2]
8 | – | 3980 | C[Ahx]FLFR[Tic]RN[Ahx]C-NH2 (linker 1-11 via PalS‑X) [NM16]
9 | – | 170 | {Palmitoyl-dPEG12}-[Aib]FLFRPRN[Aib]-NH2 [NM7]
10 | – | 3980 | C[Ahx]FLFR[Tic]RN[Ahx]C-NH2 (cysteine pairing not given here) [NM10]
11 | – | 1.12 | FRVDEEFQSPFASQSRGYFLFRPRN-NH2 [human neuromedin U]
12 | – | 43.6 | {Nic-Ida^NHPal}-[Aib]FLFRPRN-NH2 [NM4A-Nic]
13 | – | 0.58 | Ac-FLFRPRN-NH2 [NM1]
